# Results reported in publication PMC8085772 (The Journal of Cell Biology, 2021).
# B1: FLAG-His-tagged full-length CRT_(Del52), purified (natural protein, human)
# chain: EPAVYFKEQFLDGDGWTSRWIESKHKSDFGKFVLSSGKFYGDEEKDKGLQTSQDARFYALSASFEPFSNKGQTLVVQFTVKHEQNIDCGGGYVKLFPNSLDQTDMHGDSEYNIMFGPDICGPGTKKVHVIFNYKGKNVLINKDIRCKDDEFTHLYTLIVRPDNTYEVKIDNSQVESGSLEDDWDFLPPKKIKDPDASKPEDWDERAKIDDPTDSKPEDWDKPEHIPDPDAKKPEDWDEEMDGEWEPPVIQNPEYKGEWKPRQIDNPDYKGTWIHPEIDNPEYSPDPSIYAYDNFGVLGLDLWQVKSGTIFDNFLITNDEAYAEEFGNETWGVTKAAEKQMKDKQDEEQRTRRMMRTKMRMRRMRRTRRKMRRKMSPARPRTSCREACLQGWTEA
# B2: his-GB1-tagged C-domain of CRT_(Del52) (domain or fragment, human)
# chain: MKDKQDEEQRTRRMMRTKMRMRRMRRTRRKMRRKMSPARPRTSCREACLQGWTEA
# What was measured:
# [1] = target: the molecule itself; experiment: non-reducing SDS-PAGE with Coomassie staining + mass spectrometry of the bands
# [2] = target: the molecule itself; experiment: non-reducing SDS-PAGE with immunoblot
Protein,stoichiometry N [1],stoichiometry N [2]
B1,2,–
B2,–,2
